Measurements from patent US20230203146A1.

molecular target: FLAG-tagged human Ang2 (human) (UniProt O15123); assay: competition ELISA: FLAG-hAng2 binding to coated hTie2-Fc
Sequence (O15123 19-496): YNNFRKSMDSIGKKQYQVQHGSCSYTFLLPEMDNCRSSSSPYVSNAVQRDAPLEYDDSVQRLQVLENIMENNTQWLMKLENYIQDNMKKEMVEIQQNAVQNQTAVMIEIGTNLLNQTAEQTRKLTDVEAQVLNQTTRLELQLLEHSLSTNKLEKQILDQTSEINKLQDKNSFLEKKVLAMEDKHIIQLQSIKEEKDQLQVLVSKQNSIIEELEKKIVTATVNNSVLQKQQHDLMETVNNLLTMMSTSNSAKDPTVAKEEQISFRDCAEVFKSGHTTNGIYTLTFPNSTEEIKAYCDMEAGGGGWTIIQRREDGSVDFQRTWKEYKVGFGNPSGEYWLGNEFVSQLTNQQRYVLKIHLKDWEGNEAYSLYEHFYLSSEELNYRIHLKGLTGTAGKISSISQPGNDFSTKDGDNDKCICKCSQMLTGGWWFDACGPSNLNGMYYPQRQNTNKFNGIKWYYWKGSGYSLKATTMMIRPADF

IC50 | Binder
42 pM | VHH 00910 (VHH, not shown: small tags and cut ends) VHH: EVQLVESGGGLVQPGGSLRLSCAASGITIDDYAIGWFRQAPGKEREGVSSIRDNGGSTYYADSVKGRFTISSDNSKNTVYLQMNSLRPEDTAVYYCAAVPAGRLRYGEQWYPIYEYDAWGQGTLVTVSS
59 pM | VHH 00911 (VHH, not shown: small tags and cut ends) VHH: EVQLVESGGGLVQPGGSLRLSCAASGLTLDDYAIGWFRQAPGKEREGVSSIRDNGGSTYYADSVKGRFTISSDNSKNTVYLQMNSLRPEDTAVYYCAAVPAGRLRFGEQWYPIYEYDAWGQGTLVTVSS
62 pM | VHH 00912 (VHH, not shown: small tags and cut ends) VHH: EVQLVESGGGLVQPGGSLRLSCAASGLTLDDYAIGWFRQAPGKEREGVSSIRDNGGSTYYADSVKGRFTISSDNSKNTVYLQMNSLRPEDTAVYYCAAVPAGRLRYGEQWYPIYEYDAWGQGTLVTVSS
42 pM | VHH 00913 (VHH, not shown: small tags and cut ends) VHH: EVQLVESGGGLVQPGGSLRLSCAASGLTIDDYAIGWFRQAPGKEREGVSSIRDNGGSTYYADSVKGRFTISSDNSKNTVYLQMNSLRPEDTAVYYCAAVPAGRLRFGEQWYPIYEYDAWGQGTLVTVSS
37 pM | VHH 00914 (VHH, not shown: small tags and cut ends) VHH: EVQLVESGGGLVQPGGSLRLSCAASGLTIDDYAIGWFRQAPGKEREGVSSIRDNGGSTYYADSVKGRFTISSDNSKNTVYLQMNSLRPEDTAVYYCAAVPAGRLRYGEQWYPIYEYDAWGQGTLVTVSS

The remaining lines, values behind:

Binder | IC50
VHH 00903 (VHH, not shown: small tags and cut ends) VHH: EVQLVESGGGLVQPGGSLRLSCAASGFTLDDYAIGWFRQAPGKEREGVSSIRDNGGSTYYADSVKGRFTISSDNSKNTVYLQMNSLRPEDTAVYYCAAVPAGRLRFGEQWYPIYEYDAWGQGTLVTVSS | 89 pM
VHH 00904 (VHH, not shown: small tags and cut ends) VHH: EVQLVESGGGLVQPGGSLRLSCAASGFTLDDYAIGWFRQAPGKEREGVSSIRDNGGSTYYADSVKGRFTISSDNSKNTVYLQMNSLRPEDTAVYYCAAVPAGRLRYGEQWYPIYEYDAWGQGTLVTVSS | 62 pM
VHH 00905 (VHH, not shown: small tags and cut ends) VHH: EVQLVESGGGLVQPGGSLRLSCAASGFTIDDYAIGWFRQAPGKEREGVSSIRDNGGSTYYADSVKGRFTISSDNSKNTVYLQMNSLRPEDTAVYYCAAVPAGRLRFGEQWYPIYEYDAWGQGTLVTVSS | 79 pM
VHH 00906 (VHH, not shown: small tags and cut ends) VHH: EVQLVESGGGLVQPGGSLRLSCAASGFTIDDYAIGWFRQAPGKEREGVSSIRDNGGSTYYADSVKGRFTISSDNSKNTVYLQMNSLRPEDTAVYYCAAVPAGRLRYGEQWYPIYEYDAWGQGTLVTVSS | 45 pM
VHH 00907 (VHH, not shown: small tags and cut ends) VHH: EVQLVESGGGLVQPGGSLRLSCAASGITLDDYAIGWFRQAPGKEREGVSSIRDNGGSTYYADSVKGRFTISSDNSKNTVYLQMNSLRPEDTAVYYCAAVPAGRLRFGEQWYPIYEYDAWGQGTLVTVSS | 62 pM
VHH 00909 (VHH, not shown: small tags and cut ends) VHH: EVQLVESGGGLVQPGGSLRLSCAASGITIDDYAIGWFRQAPGKEREGVSSIRDNGGSTYYADSVKGRFTISSDNSKNTVYLQMNSLRPEDTAVYYCAAVPAGRLRFGEQWYPIYEYDAWGQGTLVTVSS | 53 pM
VHH 00039 (VHH, not shown: small tags and cut ends) VHH: EVQLVESGGGLVQPGGSLRLSCAASGFTFDDYALGWFRQAAGKEREGVSCIRCSDGSTYYADSVKGRFTISRDNSKNTVYLQMNSLRPEDTAVYYCAASIVPRSKLEPYEYDAWGQGTLVTVSS | 11900 pM
VHH 00040 (VHH, not shown: small tags and cut ends) VHH: EVQLVESGGGLVQPGGSLRLSCAASGFTFDDYALGWFRQAPGKEREGVSCIRCSDGSTYYADSVKGRFTISRDNSKNTVYLQMNSLRPEDTAVYYCAASIVPRSKLEPYEYDAWGQGTLVTVSS | 6400 pM
